Starred links: 1 amine or outer side, 2 acyl side, 3 side chain; linkers in the order of their positions; H or OH if unused. Non-standard residues stand in square brackets, D forms with d. *: point of attachment. Pipz(1-CH2CO,4-CH2CH2NH) = O=C(CN1CCN(CCN[*:1])CC1)[*:2]; C18 diacid = O=C(O)CCCCCCCCCCCCCCCCC(=O)*; γGlu = O=C(O)[C@H](CCC(=O)[*:2])N[*:1]; NMeL = CN[C@@H](CC(C)C)C(=O)O; hLys = NCCCCC[C@H](N)C(=O)O; Nle = CCCC[C@H](N)C(=O)O; Sar = CNCC(=O)O
T1: human neuromedin U receptor 1 (human, UniProt Q9HB89 24-426)
T1 sequence (looked up): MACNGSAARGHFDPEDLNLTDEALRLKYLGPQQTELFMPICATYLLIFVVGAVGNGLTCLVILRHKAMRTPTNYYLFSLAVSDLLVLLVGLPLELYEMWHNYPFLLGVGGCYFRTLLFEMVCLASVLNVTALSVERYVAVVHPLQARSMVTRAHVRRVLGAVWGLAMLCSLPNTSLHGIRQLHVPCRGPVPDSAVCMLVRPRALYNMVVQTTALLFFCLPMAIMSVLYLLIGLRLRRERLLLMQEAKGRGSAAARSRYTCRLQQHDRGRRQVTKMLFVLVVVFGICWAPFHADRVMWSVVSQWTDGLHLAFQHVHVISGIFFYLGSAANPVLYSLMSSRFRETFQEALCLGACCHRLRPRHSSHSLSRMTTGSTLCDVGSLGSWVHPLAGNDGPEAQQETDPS


molecular target: T1, human neuromedin U receptor 1; assay: cell-based or functional assay

EC50 (hNMUR1) buffer [nM]	Binder
130	EEEXXXXXXXXXXXXXXXXYFLXRPRG (HELM PEPTIDE1{[O=C(O)CCCCCCCCCCCCCCCCC(=O)[*:2]].[gGlu].[gGlu].[gGlu].[Sar].[Sar].[Sar].[Sar].[Sar].[Sar].[Sar].[Sar].[Sar].[Sar].[Sar].[Sar].[Sar].[Sar].[Sar].[O=C(CN1CCN([*:1])CC1)[*:2]].Y.F.[meL].[Nle].R.P.R.G.[am]}$$$$V2.0; SMILES CCCC[C@H](NC(=O)[C@H](CC(C)C)N(C)C(=O)[C@H](Cc1ccccc1)NC(=O)[C@H](Cc1ccc(O)cc1)NC(=O)CN1CCN(C(=O)CN(C)C(=O)CN(C)C(=O)CN(C)C(=O)CN(C)C(=O)CN(C)C(=O)CN(C)C(=O)CN(C)C(=O)CN(C)C(=O)CN(C)C(=O)CN(C)C(=O)CN(C)C(=O)CN(C)C(=O)CN(C)C(=O)CN(C)C(=O)CN(C)C(=O)CC[C@H](NC(=O)CC[C@H](NC(=O)CC[C@H](NC(=O)CCCCCCCCCCCCCCCCC(=O)O)C(=O)O)C(=O)O)C(=O)O)CC1)C(=O)N[C@@H](CCCNC(=N)N)C(=O)N1CCC[C@H]1C(=O)N[C@@H](CCCNC(=N)N)C(=O)NCC(N)=O) [C18DA-gGlu3-Sar15-PipAc-Tyr-Phe-NMeLeu-Nle-Arg-Pro-Arg-Gly-NH2]
> 1000	EEEXXXXXXXXXXYFLXXARG (HELM PEPTIDE1{[O=C(O)CCCCCCCCCCCCCCCCC(=O)[*:2]].[gGlu].[gGlu].[gGlu].[Sar].[Sar].[Sar].[Sar].[Sar].[Sar].[Sar].[Sar].[Sar].[O=C(CN1CCN(CCN[*:1])CC1)[*:2]].Y.F.[meL].[Nle].[Orn].[meA].R.G.[am]}$$$$V2.0; SMILES CCCC[C@H](NC(=O)[C@H](CC(C)C)N(C)C(=O)[C@H](Cc1ccccc1)NC(=O)[C@H](Cc1ccc(O)cc1)NC(=O)CN1CCN(CCNC(=O)CN(C)C(=O)CN(C)C(=O)CN(C)C(=O)CN(C)C(=O)CN(C)C(=O)CN(C)C(=O)CN(C)C(=O)CN(C)C(=O)CN(C)C(=O)CC[C@H](NC(=O)CC[C@H](NC(=O)CC[C@H](NC(=O)CCCCCCCCCCCCCCCCC(=O)O)C(=O)O)C(=O)O)C(=O)O)CC1)C(=O)N[C@@H](CCCN)C(=O)N(C)[C@@H](C)C(=O)N[C@@H](CCCNC(=N)N)C(=O)NCC(N)=O) [C18DA-gGlu3-Sar9-AEPipAc-Tyr-Phe-NMeLeu-Nle-Orn-NMeAla-Arg-Gly-NH2]
150	EEEXXXXXXXXXXYFLXRPRG (HELM PEPTIDE1{[O=C(O)CCCCCCCCCCCCCCCCC(=O)[*:2]].[gGlu].[gGlu].[gGlu].[Sar].[Sar].[Sar].[Sar].[Sar].[Sar].[Sar].[Sar].[Sar].[O=C(CN1CCN(CCN[*:1])CC1)[*:2]].Y.F.[meL].[Nle].R.P.R.G.[am]}$$$$V2.0; SMILES CCCC[C@H](NC(=O)[C@H](CC(C)C)N(C)C(=O)[C@H](Cc1ccccc1)NC(=O)[C@H](Cc1ccc(O)cc1)NC(=O)CN1CCN(CCNC(=O)CN(C)C(=O)CN(C)C(=O)CN(C)C(=O)CN(C)C(=O)CN(C)C(=O)CN(C)C(=O)CN(C)C(=O)CN(C)C(=O)CN(C)C(=O)CC[C@H](NC(=O)CC[C@H](NC(=O)CC[C@H](NC(=O)CCCCCCCCCCCCCCCCC(=O)O)C(=O)O)C(=O)O)C(=O)O)CC1)C(=O)N[C@@H](CCCNC(=N)N)C(=O)N1CCC[C@H]1C(=O)N[C@@H](CCCNC(=N)N)C(=O)NCC(N)=O) [C18DA-gGlu3-Sar9-AEPipAc-Tyr-Phe-NMeLeu-Nle-Arg-Pro-Arg-Gly-NH2]
130	EEXXXXXXXYFLXRPRG (HELM PEPTIDE1{[O=C(O)CCCCCCCCCCCCCCCCC(=O)[*:2]].[gGlu].[gGlu].[Sar].[Sar].[Sar].[Sar].[Sar].[Sar].[O=C(CN1CCN(CCN[*:1])CC1)[*:2]].Y.F.[meL].[Nle].R.P.R.G.[am]}$$$$V2.0; SMILES CCCC[C@H](NC(=O)[C@H](CC(C)C)N(C)C(=O)[C@H](Cc1ccccc1)NC(=O)[C@H](Cc1ccc(O)cc1)NC(=O)CN1CCN(CCNC(=O)CN(C)C(=O)CN(C)C(=O)CN(C)C(=O)CN(C)C(=O)CN(C)C(=O)CN(C)C(=O)CC[C@H](NC(=O)CC[C@H](NC(=O)CCCCCCCCCCCCCCCCC(=O)O)C(=O)O)C(=O)O)CC1)C(=O)N[C@@H](CCCNC(=N)N)C(=O)N1CCC[C@H]1C(=O)N[C@@H](CCCNC(=N)N)C(=O)NCC(N)=O) [C18DA-gGlu2-Sar6-AEPipAc-Tyr-Phe-NMeLeu-Nle-Arg-Pro-Arg-Gly-NH2]
540	EEEXXXXXXXXXXYFLXRARG (HELM PEPTIDE1{[O=C(O)CCCCCCCCCCCCCCCCC(=O)[*:2]].[gGlu].[gGlu].[gGlu].[Sar].[Sar].[Sar].[Sar].[Sar].[Sar].[Sar].[Sar].[Sar].[O=C(CN1CCN(CCN[*:1])CC1)[*:2]].Y.F.[meL].[Nle].R.[meA].R.G.[am]}$$$$V2.0; SMILES CCCC[C@H](NC(=O)[C@H](CC(C)C)N(C)C(=O)[C@H](Cc1ccccc1)NC(=O)[C@H](Cc1ccc(O)cc1)NC(=O)CN1CCN(CCNC(=O)CN(C)C(=O)CN(C)C(=O)CN(C)C(=O)CN(C)C(=O)CN(C)C(=O)CN(C)C(=O)CN(C)C(=O)CN(C)C(=O)CN(C)C(=O)CC[C@H](NC(=O)CC[C@H](NC(=O)CC[C@H](NC(=O)CCCCCCCCCCCCCCCCC(=O)O)C(=O)O)C(=O)O)C(=O)O)CC1)C(=O)N[C@@H](CCCNC(=N)N)C(=O)N(C)[C@@H](C)C(=O)N[C@@H](CCCNC(=N)N)C(=O)NCC(N)=O) [C18DA-gGlu3-Sar9-AEPipAc-Tyr-Phe-NMeLeu-Nle-Arg-NMeAla-Arg-Gly-NH2]

Further lines, the binder ahead of its results:

Binder	EC50 (hNMUR1) buffer [nM]
EEEXXXXXXXYFLXRPRG (HELM PEPTIDE1{[O=C(O)CCCCCCCCCCCCCCCCC(=O)[*:2]].[gGlu].[gGlu].[gGlu].[Sar].[Sar].[Sar].[Sar].[Sar].[Sar].[O=C(CN1CCN(CCN[*:1])CC1)[*:2]].Y.F.[meL].[Nle].R.P.R.G.[am]}$$$$V2.0; SMILES CCCC[C@H](NC(=O)[C@H](CC(C)C)N(C)C(=O)[C@H](Cc1ccccc1)NC(=O)[C@H](Cc1ccc(O)cc1)NC(=O)CN1CCN(CCNC(=O)CN(C)C(=O)CN(C)C(=O)CN(C)C(=O)CN(C)C(=O)CN(C)C(=O)CN(C)C(=O)CC[C@H](NC(=O)CC[C@H](NC(=O)CC[C@H](NC(=O)CCCCCCCCCCCCCCCCC(=O)O)C(=O)O)C(=O)O)C(=O)O)CC1)C(=O)N[C@@H](CCCNC(=N)N)C(=O)N1CCC[C@H]1C(=O)N[C@@H](CCCNC(=N)N)C(=O)NCC(N)=O) [C18DA-gGlu3-Sar6-AEPipAc-Tyr-Phe-NMeLeu-Nle-Arg-Pro-Arg-Gly-NH2]	82
EEEXXXXXXXXXXXXXXXXYFLXXPRG (HELM PEPTIDE1{[O=C(O)CCCCCCCCCCCCCCCCC(=O)[*:2]].[gGlu].[gGlu].[gGlu].[Sar].[Sar].[Sar].[Sar].[Sar].[Sar].[Sar].[Sar].[Sar].[Sar].[Sar].[Sar].[Sar].[Sar].[Sar].[O=C(CN1CCN([*:1])CC1)[*:2]].Y.F.[meL].[Nle].[Dab].P.R.G.[am]}$$$$V2.0; SMILES CCCC[C@H](NC(=O)[C@H](CC(C)C)N(C)C(=O)[C@H](Cc1ccccc1)NC(=O)[C@H](Cc1ccc(O)cc1)NC(=O)CN1CCN(C(=O)CN(C)C(=O)CN(C)C(=O)CN(C)C(=O)CN(C)C(=O)CN(C)C(=O)CN(C)C(=O)CN(C)C(=O)CN(C)C(=O)CN(C)C(=O)CN(C)C(=O)CN(C)C(=O)CN(C)C(=O)CN(C)C(=O)CN(C)C(=O)CN(C)C(=O)CC[C@H](NC(=O)CC[C@H](NC(=O)CC[C@H](NC(=O)CCCCCCCCCCCCCCCCC(=O)O)C(=O)O)C(=O)O)C(=O)O)CC1)C(=O)N[C@@H](CCN)C(=O)N1CCC[C@H]1C(=O)N[C@@H](CCCNC(=N)N)C(=O)NCC(N)=O) [C18DA-gGlu3-Sar15-PipAc-Tyr-Phe-NMeLeu-Nle-Dbu-Pro-Arg-Gly-NH2]	1100
EEXXXXXXXXXXYFLXRPRG (HELM PEPTIDE1{[O=C(O)CCCCCCCCCCCCCCCCC(=O)[*:2]].[gGlu].[gGlu].[Sar].[Sar].[Sar].[Sar].[Sar].[Sar].[Sar].[Sar].[Sar].[O=C(CN1CCN(CCN[*:1])CC1)[*:2]].Y.F.[meL].[Nle].R.P.R.G.[am]}$$$$V2.0; SMILES CCCC[C@H](NC(=O)[C@H](CC(C)C)N(C)C(=O)[C@H](Cc1ccccc1)NC(=O)[C@H](Cc1ccc(O)cc1)NC(=O)CN1CCN(CCNC(=O)CN(C)C(=O)CN(C)C(=O)CN(C)C(=O)CN(C)C(=O)CN(C)C(=O)CN(C)C(=O)CN(C)C(=O)CN(C)C(=O)CN(C)C(=O)CC[C@H](NC(=O)CC[C@H](NC(=O)CCCCCCCCCCCCCCCCC(=O)O)C(=O)O)C(=O)O)CC1)C(=O)N[C@@H](CCCNC(=N)N)C(=O)N1CCC[C@H]1C(=O)N[C@@H](CCCNC(=N)N)C(=O)NCC(N)=O) [C18DA-gGlu2-Sar9-AEPipAc-Tyr-Phe-NMeLeu-Nle-Arg-Pro-Arg-Gly-NH2]	90
{C18 diacid}-[γGlu][γGlu][γGlu][Sar][Sar][Sar][Sar][Sar][Sar][Sar][Sar][Sar][Pipz(1-CH2CO,4-CH2CH2NH)]YF[NMeL][Nle][hLys]PRG-NH2 (SMILES CCCC[C@H](NC(=O)[C@H](CC(C)C)N(C)C(=O)[C@H](Cc1ccccc1)NC(=O)[C@H](Cc1ccc(O)cc1)NC(=O)CN1CCN(CCNC(=O)CN(C)C(=O)CN(C)C(=O)CN(C)C(=O)CN(C)C(=O)CN(C)C(=O)CN(C)C(=O)CN(C)C(=O)CN(C)C(=O)CN(C)C(=O)CC[C@H](NC(=O)CC[C@H](NC(=O)CC[C@H](NC(=O)CCCCCCCCCCCCCCCCC(=O)O)C(=O)O)C(=O)O)C(=O)O)CC1)C(=O)N[C@@H](CCCCCN)C(=O)N1CCC[C@H]1C(=O)N[C@@H](CCCNC(=N)N)C(=O)NCC(N)=O) [C18DA-gGlu3-Sar9-AEPipAc-Tyr-Phe-NMeLeu-Nle-hLys-Pro-Arg-Gly-NH2]	1400

From US20240279278A1, “NMU RECEPTOR 2 AGONISTS” (Boehringer Ingelheim International GmbH, priority 2023, published 2024)
